Measured values published in patent US20100015126A1, “Methods of Binding of Cross-Beta Structures By Chaperones” (priority 2006, published 2010).

Tests used:
[1] = biological target: Clusterin precursor (human) (UniProt P10909); experiment: BiP-Sepharose pull-down, RA synovial fluid sample 2B, 1 M NaCl eluate, MS; may be indirect
[2] = biological target: Neutrophil defensin 1 precursor (human) (UniProt P59665); experiment: as above
[3] = biological target: IGHG4 protein, immunoglobulin heavy constant gamma 4 (human) [IgG part: P01861]; experiment: as above
Sequence of IGHG4 protein, immunoglobulin heavy constant gamma 4 (human) [IgG part: P01861] (P01861 other isoform, or with tags, fused parts or gaps limits assumed): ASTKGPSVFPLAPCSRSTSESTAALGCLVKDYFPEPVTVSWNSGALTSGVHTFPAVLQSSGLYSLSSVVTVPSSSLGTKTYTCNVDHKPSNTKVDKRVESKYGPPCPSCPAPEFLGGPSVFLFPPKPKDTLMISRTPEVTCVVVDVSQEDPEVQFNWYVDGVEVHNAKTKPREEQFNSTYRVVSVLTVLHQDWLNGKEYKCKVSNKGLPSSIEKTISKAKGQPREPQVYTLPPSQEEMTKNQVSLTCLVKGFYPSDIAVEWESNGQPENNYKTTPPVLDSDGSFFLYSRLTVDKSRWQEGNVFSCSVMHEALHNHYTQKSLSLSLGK

[4] = biological target: Hypothetical protein DKFZp686I04196 (Fragment)/Immunoglobulin heavy constant gamma 2 (G2m marker)/Ig gamma-2 chain C region (human) [IgG part: P01859]; experiment: as above
Sequence of Hypothetical protein DKFZp686I04196 (Fragment)/Immunoglobulin heavy constant gamma 2 (G2m marker)/Ig gamma-2 chain C region (human) [IgG part: P01859] (P01859 other isoform, or with tags, fused parts or gaps limits assumed): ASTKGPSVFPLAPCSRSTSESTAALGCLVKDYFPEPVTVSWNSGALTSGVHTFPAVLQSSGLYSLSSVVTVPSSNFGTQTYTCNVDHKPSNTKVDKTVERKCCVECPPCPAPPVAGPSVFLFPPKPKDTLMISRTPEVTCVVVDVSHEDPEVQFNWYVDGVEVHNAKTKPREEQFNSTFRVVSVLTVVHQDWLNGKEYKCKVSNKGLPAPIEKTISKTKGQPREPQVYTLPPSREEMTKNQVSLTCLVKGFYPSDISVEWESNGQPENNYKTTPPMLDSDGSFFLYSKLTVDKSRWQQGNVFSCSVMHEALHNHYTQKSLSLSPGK

[5] = biological target: IGHM protein, coagulation factor VII (serum prothrombin conversion accelerator) (human) (UniProt P08709); experiment: as above
[6] = biological target: Histidine-rich glycoprotein precursor (human) (UniProt P04196); experiment: as above
Sequence of Histidine-rich glycoprotein precursor (human) (P04196 19-525 limits assumed): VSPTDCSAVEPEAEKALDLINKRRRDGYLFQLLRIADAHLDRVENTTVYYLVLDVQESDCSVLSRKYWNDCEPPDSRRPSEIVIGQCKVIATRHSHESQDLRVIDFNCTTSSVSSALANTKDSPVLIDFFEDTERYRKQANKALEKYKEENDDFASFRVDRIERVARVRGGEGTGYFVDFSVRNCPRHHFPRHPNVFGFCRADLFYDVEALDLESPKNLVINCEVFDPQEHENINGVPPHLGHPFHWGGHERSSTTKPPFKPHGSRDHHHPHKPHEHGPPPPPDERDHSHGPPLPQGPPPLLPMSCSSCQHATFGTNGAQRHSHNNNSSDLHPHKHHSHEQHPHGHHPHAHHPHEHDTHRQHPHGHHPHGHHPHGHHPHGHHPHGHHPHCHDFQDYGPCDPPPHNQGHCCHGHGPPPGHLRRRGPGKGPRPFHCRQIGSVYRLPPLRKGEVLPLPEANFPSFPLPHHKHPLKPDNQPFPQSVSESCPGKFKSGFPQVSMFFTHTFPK

[7] = biological target: Hypothetical protein/Heat shock 70 kDa protein 5 (glucose-regulated protein, 78 kDa = GRP78 = BiP = HSPA5), as identified in eluates (human) (UniProt P11021); experiment: BiP-Sepharose pull-down, RA synovial fluid sample 6B, 1 M NaCl eluate, MS; BiP may stem from the column
Sequence of Hypothetical protein/Heat shock 70 kDa protein 5 (glucose-regulated protein, 78 kDa = GRP78 = BiP = HSPA5), as identified in eluates (human) (P11021 19-654 limits assumed): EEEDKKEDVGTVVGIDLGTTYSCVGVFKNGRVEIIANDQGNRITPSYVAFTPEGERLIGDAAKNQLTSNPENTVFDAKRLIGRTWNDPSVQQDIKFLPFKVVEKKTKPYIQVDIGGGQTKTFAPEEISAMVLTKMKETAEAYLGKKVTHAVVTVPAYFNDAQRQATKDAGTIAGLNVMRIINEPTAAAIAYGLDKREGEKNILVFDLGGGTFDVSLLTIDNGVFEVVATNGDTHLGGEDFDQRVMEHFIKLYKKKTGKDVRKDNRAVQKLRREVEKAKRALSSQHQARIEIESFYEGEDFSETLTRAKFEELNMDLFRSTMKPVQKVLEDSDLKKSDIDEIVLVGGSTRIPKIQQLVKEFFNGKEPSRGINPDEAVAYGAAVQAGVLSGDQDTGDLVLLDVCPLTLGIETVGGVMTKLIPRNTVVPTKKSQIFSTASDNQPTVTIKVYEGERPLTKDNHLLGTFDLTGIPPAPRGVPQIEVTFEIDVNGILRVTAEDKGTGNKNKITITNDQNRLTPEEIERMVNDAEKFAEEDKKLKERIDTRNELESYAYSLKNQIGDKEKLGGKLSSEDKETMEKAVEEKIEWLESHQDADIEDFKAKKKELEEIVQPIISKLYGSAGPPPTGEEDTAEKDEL

[8] = biological target: Hypothetical protein/Heat shock 70 kDa protein 5 (glucose-regulated protein, 78 kDa = GRP78 = BiP = HSPA5), as identified in eluates (human) (UniProt P11021); experiment: BiP-Sepharose pull-down, RA synovial fluid sample 4B, 1 M NaCl eluate, MS; BiP may stem from the column
[9] = biological target: IGLC1 protein (immunoglobulin lambda C1)/immunoglobulin lambda chain/immunoglobulin C1 segment protein (fragment) (human) (UniProt P0CG04); experiment: BiP-Sepharose pull-down, RA patient IV synovial fluid (B6), MS of urea eluate; may be indirect
Sequence of IGLC1 protein (immunoglobulin lambda C1)/immunoglobulin lambda chain/immunoglobulin C1 segment protein (fragment) (human) (P0CG04 whole entry, the tested form may be a part): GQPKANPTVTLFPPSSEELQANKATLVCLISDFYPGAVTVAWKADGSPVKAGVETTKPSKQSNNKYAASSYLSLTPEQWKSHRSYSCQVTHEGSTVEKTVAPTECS

[10] = biological target: Ig heavy chain V-III region CAM (human) (UniProt P01768); experiment: as above
Sequence of Ig heavy chain V-III region CAM (human) (P01768 20-117 limits assumed): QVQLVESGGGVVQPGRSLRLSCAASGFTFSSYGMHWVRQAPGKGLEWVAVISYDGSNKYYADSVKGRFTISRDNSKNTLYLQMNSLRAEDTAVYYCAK

[11] = biological target: Immunoglobulin heavy constant mu (IPI00479708) (human) (UniProt P01871); experiment: as above
Sequence of Immunoglobulin heavy constant mu (IPI00479708) (human) (P01871 other isoform, or with tags, fused parts or gaps limits assumed): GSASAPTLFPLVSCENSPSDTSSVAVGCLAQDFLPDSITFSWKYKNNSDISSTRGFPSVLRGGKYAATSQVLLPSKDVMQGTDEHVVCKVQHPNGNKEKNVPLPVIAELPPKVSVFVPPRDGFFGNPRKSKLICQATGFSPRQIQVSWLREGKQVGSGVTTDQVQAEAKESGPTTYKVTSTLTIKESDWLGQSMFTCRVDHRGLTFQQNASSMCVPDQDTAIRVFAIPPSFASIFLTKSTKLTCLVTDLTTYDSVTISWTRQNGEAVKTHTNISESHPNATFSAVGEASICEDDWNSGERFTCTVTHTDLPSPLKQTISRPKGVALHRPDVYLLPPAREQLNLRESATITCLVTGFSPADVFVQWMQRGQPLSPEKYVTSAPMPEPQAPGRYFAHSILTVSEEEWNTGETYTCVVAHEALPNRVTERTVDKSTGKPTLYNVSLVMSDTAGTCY

Sequence of Clusterin precursor (human) (P10909 23-449 limits assumed, form in doubt): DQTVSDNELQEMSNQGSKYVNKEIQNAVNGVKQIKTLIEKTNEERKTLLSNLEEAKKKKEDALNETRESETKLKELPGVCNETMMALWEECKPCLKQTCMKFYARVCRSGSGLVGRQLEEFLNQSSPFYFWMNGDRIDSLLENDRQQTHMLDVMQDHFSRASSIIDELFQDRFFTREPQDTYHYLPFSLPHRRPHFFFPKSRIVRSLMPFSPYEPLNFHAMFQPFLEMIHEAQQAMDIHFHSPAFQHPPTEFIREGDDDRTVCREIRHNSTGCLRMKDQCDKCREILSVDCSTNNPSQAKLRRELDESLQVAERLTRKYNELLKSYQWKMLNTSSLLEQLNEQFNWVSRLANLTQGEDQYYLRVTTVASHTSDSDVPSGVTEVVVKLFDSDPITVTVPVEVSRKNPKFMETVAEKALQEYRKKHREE
Sequence of Neutrophil defensin 1 precursor (human) (P59665 65-94 limits assumed): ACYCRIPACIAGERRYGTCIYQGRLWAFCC

# of unique peptides [1]: 1 peptides
# of unique peptides [2]: 1 peptides
# of unique peptides [3]: 1 peptides
# of unique peptides [4]: 1 peptides
# of unique peptides [5]: 1 peptides
# of unique peptides [6]: 1 peptides
# of unique peptides [7]: 17 peptides
# of unique peptides [8]: 10 peptides
# of peptides [9]: 1 peptides
# of peptides [10]: 2 peptides
# of peptides [11]: 1 peptides
Substance: recombinant human BiP with C-terminal linker, FLAG-tag and His-tag (BiP-FLAG-His) (from UniProt P11021 19-654)
